The data set can be described thus: label from the status in PepcDB records.
Regarding “LHARLLQQESIINALPFAVFIRTAAGELAVYNSHFAEAHQDKLNDLLNHNNEPANWPMTSPLDREIDKYCRQVLTHRKPQMVDLSLEINGELRDIFLWIIPLDNAERSLFGGWLDISQRKTVERQLEAARVEAESANRTKSTFLATISHELRTPMYAIMGLL”, the protein production result is reported as “failed”.

In the case of “LHRIVDKMHDTSTGIRPSPNMEQGSTYKKTFLGSSLVDWLISSNFAASRLEAVTLASMLMEENFLRPVGVRSMGAIRSGDLAEQFLDDSTALYTFAESYKKKVSSKE”, the protein production entry was “not failed”.

With “LICLLSSLLSVQAAPGPHPHWSVGFHEMSFLDPLDRQPMRAIAFYPSTGIEHGSQLEGYQIAASRDAKIAIGRFPMLMLSHGNTGTPLALHDLATSLARKGFVVVAVIHPGDNSKDHSRLGTLSNLYGRPIQISEAITATLGDPMLSPFVNADQVGVIGYSAGGETALILSGATPDLDRLRRYCQERPNDRDACNTQGELIVDRDDLQPVADPRVHALMLLAPLSLKFGRQTLAGVHVPVLLYSGDGDQLVALDKNAAALARKLPVAPDFKLLAGAGHFVFMAPCSAQQMAAMPALCTDADGVDREDIHRNLILEAGNFFA”, the protein production result is recorded as “failed”.

With “LIHKYKNFVRAKSRSYFLVGADREDIVQEGMIGLFKAIRDYKEDKLSSFKAFAELCITRQIITAIKTATRQKHIPLNSYVSLDKPIYDEESDRTLLDVISEAKVTDPEEMIISQEEYTDIESKISELLSDLERKVLSLYLDGRSYQEISEQLNRHVKSIDNALQRVKRKLERYMEMRESTTLNS”, the protein production result was “not failed”.

Regarding “LKASGVQAQMAKQQEQDPTNLYISNLPLSMDEQELENMLKPFGQVISTRILRDSSGTSRGVGFARMESTEKCEAVIGHFNGKFIKTPPGVSAPTEPLLCKF”, the protein production entry is on record as “not failed”.

Consider “LKDIETACKLLNITADPMDWSPSNVQKWLLWTEHQYRLPPMGKAFQELAGKELCAMSEEQFRQRSPLGGDVLHAHLDIWKSAA”, for which the protein production entry is “not failed”.

On to “LKRDFIILGNGPRLQNSTYQCKHCDSKLQSTAELTSHLNIHNEEFQKRAKRQERRKQLLSKQKYADGAFADFKQE”, for which the protein production entry is given as “not failed”.

Turning to “LLALWVSAGELMAASKGAAGFTKATQEVSSYQTPVSNLMKAIAAVIVLVGAFNVYFKMQNGDQDVKKTIMLTIGGCIAFIALSEALPLFF”, the protein production entry was “failed”.

As for “LLARALYDNCPDCSDELAFSRGDILTILEQHVPESEGWWKCLLHGRQGLAPANRLQIL”, the protein production result is reported as “not failed”.

As to “LLGLGVGPGDPELITLKALRLLRAAPVVGYFVAKGKKGNAFGIIEAHLDQAQVRLPLVYPVTTEKLEPPLCYETIISDFYDTAAEQLAAHLDAGRDVAVICEGDPFFYGSYMYLHDRLATRYESEVVPGVCSMLGGAAVLGAPLVYRNQSLSVLSGVLPEEELRRRLADADAAVVMKLGRNFDKVRRVLVELGLERRALYVERATMANQRIVPLERVEPMASPYFSLIVVPGDKWQGGAGGE”, the protein production entry is listed as “failed”.

Turning to “LLSLALAALMEDVHAHSGAVYLLAPDEPVLEMAVMAGLPRAFAAPWERVGLSAPLPVAEAVRERRLVWVNGEEQMAGRYPRVAVVLPYSFALAALPLACADTVYGALFVTWPDSHPPELSSRERDQLGVACDRLATRLAHA”, the protein production entry is on record as “failed”.

For the sequence “LNDALLLMEANIEDPLTTDEIAGLVGVSRRQLERLFRQYLGAMPSKYYLNLRLLKARTQLQRTSKSVVQVSLACGFSSAAHFSNAYRERFGVTPREDRRA”, the protein production result was “not failed”.

On to “LNLPYDEHADAWTQVKKALAAGKRTHKPTLLVFGANWCTDCRALDKSLRNQKNTALIAKHFEVVKIDVGNFDRNLELSQAYGDPIQDGIPAVVVVNSDGKVRYTTKGGELANARKMSDQGIYDFFAKITETRGV”, for which the protein production result is listed as “failed”.

As to “LNTNQLFAYLNRGDIAEFKFSPLFTTLFFPNVATFSTQNIMLDTLDIEEVTMSAFCSPMVGSQVQRDKGYETSTIKPGYMKPKHEIDPTKTIMRMAGEDPAQLNDPTYRRMRLITGNMRRQINAIKARVEWLAVNAVTTGKNIIEGEGIERYEIDWKIPEKNIIEQADGKKWSEQDKETHYPIYDIELYADQAGCPANVMIMGAEVWRTLRSFKKFRELYDLSRGSESAAELACKNLGEVVSFKGYLGDLALIVYSGKYTDSDGTEKYFLEPDLLVLGNTNNKGLVAYGAIMDQEAVRTGATQNMFYPKNWIEDGDPAIEYVQTHSAPQPVPADIRKFVTVKIA”, the protein production result is reported as “failed”.

On to “LPRQIAATVDLNSHGAGEHLDEQVIHCAHDLALQCNAELHLLHVCDAAKTHIADFGAGTVTMPGFDSSVRTAQRAAFNRLGDHHQIPLERRHFLEGAAIRAIAQFVGHNRVDVIVMGSHRHDAMQTFLGGTTAHVLEHPLCNVLAIKAVR”, for which the protein production entry is given as “failed”.

As for “LPVILWFLAHGLDVVFIDYPRDPATGVQYYCDSIAAAKSLLDAVLASRQLGLSPEAPLGLWGFSQGGGATGWAAQLQDYAPDVRPKAAVVGAPPVDLFRVLDTVDGGLLTGVIAYAIAGLAVNSSEMFEEIMSVLNERGVSDVLKNITSCAGGSLLASGYSSSRGWTHQGTPLADILDDLPLVVAEFGKQKLGRVAPEIPVLLWGSKNDDVIPIDPIRELRDSWADKGTPLTWHESQAPRVPGRTGLNHFGPYFRNLEKYSGWLIDHL”, the protein production result is reported as “failed”.

As to “LQQFLDALASSPEKIEFETTMAVIEDNYDFTPAAFTNGNTQNDANENNGSCKIFAFGLLNALDKEATLACFGRFYREDVLLHPENNDHQNIRNFMVTGWEGIQFETSALTAK”, the protein production entry is given as “not failed”.

For “LRASEIMNRTLDLQIIMDDLLNLLLKEFKLDLAVIRLVDEKGVLRVRSYSGKGIAGIAGKDWEPEIETYIGEAFLSNRLQFVNDTQYMTKPLTRELMQKEGIKSFAHIPISRKGEPPFGILSVFSRTIVGLFNEPFLNLLESLAGQLAQAVKIVTEMEAKEREREEKERILLENA”, the protein production entry is given as “not failed”.

For the sequence “LRGTHSQLRCVLNAATQVAIIATDLRGVISTFNAGAEQMLGYSSSEAVGHLTLESLHLPEELESWAQSLTQRYGKAIPVSQAMLVEEGMAGGHEAREWTLVRRDGSHLQVNMLATPVLDDQGLWIGHLAICIDITERKRVHEA”, the protein production result is given as “failed”.

Take “LRTIVELMENNLEETLSLDQLAAYSGRSRRQIDRLFQAQLGTSPRRYYMELRITKSRRLLQYSDLSVMEVAVACGFVSVSHFSKCYAAYFGYPPSREQRLGE”: the protein production result was “failed”.

Take “LSASEERFQLAVSGASAGLWDWNPKTGAMYLSPHFKKIMGYEDHELPDEITGHRESIHPDDRARVLAALKAHLEHRDTYDVEYRVRTRSGDFRWIQSRGQALWNSAGEPYRMVGWIMDVTDRKRDEDALRVSREELRRL”: the protein production entry was “not failed”.

For “LTPLAQMAEGMERQDVSIDKWTLHAKQNLSLTEKEFYQKVQRLKQEYRQYDWVIAREDKMIKAIGTYTDKKNRTSFRLQLVTTLKKHNPTSYLLYEQMSLETPDSWNDTYEQFERETLGIFQEKVVIFTCLNGHLDDNMNIVLQKKANQLLNEFQARSVEHVVEPNFVSISAFTDEWEEYIMTSKHKMNLQIALRSAGMGGKHTVTVGTPIVTTEY”, the protein production entry was “not failed”.

For the sequence “LTTTSADYIGPIVEHQYLQWDNWPRLGEILRSEKPLAFQQESRFAHDTRARDAFNDAMVRLSQPMVDVVSELGVFARARTVIDLAGGHGTYLAQVLRRHPQLTGQIWDLPTTRDAARKTIHAHDLGGRVEFFEKNLLDARNFEGGAADVVMLNDCLHYFDAREAREVIGHAAGLVKPGGALLILTMTMNDDRVTPALSADFSLHMMVNTNHGELHPTPWIAGVVRDAGLAVGERSIGRYTLLIGQRSSGEV”, the protein production result is recorded as “failed”.

Consider “LVAVDEFIRRHFSQPVTMAELTGIAGMSAAQLERYCKKVFHLSPRQMIHKARLEHAHRLLHADMAITEVALRCGYADHSAFSRQFKALTGLTPRQYRQQ”, for which the protein production entry is recorded as “failed”.
